Results reported in US20110300138A1 (published 2011).
One block for each substance: values may come before it.

Legend:
[1] = biological target: full length human TSHR with mutation Arg255 Asp (human) (UniProt P16473); test: TSHR260-AP bridge ELISA, Arg255 Asp TSHR on wells; IgG at 0.5 µg/mL in HBD
[2] = biological target: full length wild type human TSHR (human) (UniProt P16473); test: TSHR260-AP bridge ELISA, wild type TSHR on wells; IgG at 0.005 µg/mL in HBD
[3] = biological target: TSHR with Arg80 mutated to Ala expressed in CHO cells (human) (UniProt P16473); test: cell-based or functional assay
[4] = biological target: TSHR with Asp151 mutated to Ala, expressed in CHO cells (human) (UniProt P16473); test: cell-based or functional assay
[5] = biological target: TSHR with Asp203 mutated to Ala expressed in CHO cells (human) (UniProt P16473); test: cell-based or functional assay
[6] = biological target: TSHR with Asp276 mutated to Ala, expressed in CHO cells (human) (UniProt P16473); test: cell-based or functional assay
[7] = biological target: TSHR with Asp43 mutated to Ala, expressed in CHO cells (human) (UniProt P16473); test: cell-based or functional assay
[8] = biological target: TSHR with Gln235 mutated to Ala expressed in CHO cells (human) (UniProt P16473); test: cell-based or functional assay
[9] = biological target: TSHR with Tyr185 mutated to Ala (human) (UniProt P16473); test: cell-based or functional assay
[10] = biological target: wild type TSHR (human TSH receptor) expressed in CHO cells (human) (UniProt P16473); test: cell-based or functional assay
[11] = biological target: wild type human TSHR (full length) expressed in CHO cells (human) (UniProt P16473); test: cell-based or functional assay
[12] = biological target: TSH receptor (TSHR), full length human, coated on tubes (human) (UniProt P16473); test: inhibition of 125I-TSH binding to TSHR coated tubes; 1 µg/mL, diluted in assay buffer
[13] = biological target: TSHR260-alkaline phosphatase (TSHR260-AP) (human) (UniProt P05187); test: TSHR260-AP bridge ELISA, full length TSHR on wells; 100 µg/mL, diluted in assay buffer
[14] = biological target: thyroid stimulating hormone receptor (TSHR), full length, coated on tubes (human) (UniProt P16473); test: inhibition of 125I-TSH binding, TSHR coated tubes; antibody 100 µg/mL in assay buffer
[15] = biological target: human thyroid stimulating hormone receptor (TSHR), full length (human) (UniProt P16473); test: 125I-K1-70 Fab (competitor) binding to TSHR coated tubes; test sample 1 µg/mL in assay buffer

M22 IgG (antibody), sequence (VH): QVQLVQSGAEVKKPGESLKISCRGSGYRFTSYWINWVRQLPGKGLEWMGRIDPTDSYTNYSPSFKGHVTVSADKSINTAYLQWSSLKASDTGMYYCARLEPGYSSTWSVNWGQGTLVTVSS
M22 IgG (antibody), sequence (V domain): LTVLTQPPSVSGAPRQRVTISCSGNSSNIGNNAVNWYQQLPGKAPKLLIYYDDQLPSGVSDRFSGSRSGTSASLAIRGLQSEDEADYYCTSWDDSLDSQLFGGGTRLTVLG

Mean absorbance at 405 nm (absorbance at 405 nm) [1]: 0.262 | Mean absorbance at 405 nm (absorbance at 405 nm) [2]: 0.032
Substance: M22 IgG (antibody)

% inhibition of TSH stimulation; 5B3 10 µg/mL [3]: 0.3% | % inhibition of TSH stimulation; 5B3 100 µg/mL [3]: 4% | Cyclic AMP produced; 5B3 10 µg/mL + TSH 3 ng/mL [3]: 105 pmol/mL | Cyclic AMP produced; 5B3 100 µg/mL + TSH 3 ng/mL [3]: 101 pmol/mL | Mutated/wild type (%) of cyclic AMP produced; 5B3 10 µg/mL + TSH 3 ng/mL [3]: 102% | Mutated/wild type (%) of cyclic AMP produced; 5B3 100 µg/mL + TSH 3 ng/mL [3]: 107% | % inhibition of TSH stimulation, mutated TSHR; 5B3 10 µg/mL [4]: 11% | % inhibition of TSH stimulation, mutated TSHR; 5B3 100 µg/mL [4]: 0% | Mutated/wild type (%) of cyclic AMP produced; test sample: 5B3 10 µg/mL + TSH (3 ng/mL) [4]: 53% | Mutated/wild type (%) of cyclic AMP produced; test sample: 5B3 100 µg/mL + TSH (3 ng/mL) [4]: 57% | % inhibition of TSH stimulation: 5B3 10 µg/mL [5]: 0% | % inhibition of TSH stimulation: 5B3 100 µg/mL [5]: 0% | Cyclic AMP, Mutated/wild type (%): 5B3 10 µg/mL + TSH 3 ng/mL [5]: 89% | Cyclic AMP, Mutated/wild type (%): 5B3 100 µg/mL + TSH 3 ng/mL [5]: 84% | Experiment 1; % inhibition of TSH stimulation; 5B3 10 µg/mL [6]: 6% | Experiment 1; % inhibition of TSH stimulation; 5B3 100 µg/mL [6]: 4% | Experiment 1; Mutated/wild type (%) of cyclic AMP produced; 5B3 10 µg/mL + TSH 3 ng/mL [6]: 84% | Experiment 1; Mutated/wild type (%) of cyclic AMP produced; 5B3 100 µg/mL + TSH 3 ng/mL [6]: 94% | Experiment 1; cyclic AMP produced; 5B3 10 µg/mL + TSH 3 ng/mL [6]: 66.8 pmol/mL | Experiment 1; cyclic AMP produced; 5B3 100 µg/mL + TSH 3 ng/mL [6]: 68.5 pmol/mL | Experiment 2; % inhibition of TSH stimulation; 5B3 10 µg/mL [6]: 4% | Experiment 2; % inhibition of TSH stimulation; 5B3 100 µg/mL [6]: 0% | Experiment 2; Mutated/wild type (%) of cyclic AMP produced; 5B3 10 µg/mL + TSH 3 ng/mL [6]: 67% | Experiment 2; Mutated/wild type (%) of cyclic AMP produced; 5B3 100 µg/mL + TSH 3 ng/mL [6]: 75% | Experiment 2; cyclic AMP produced; 5B3 10 µg/mL + TSH 3 ng/mL [6]: 71.6 pmol/mL | Experiment 2; cyclic AMP produced; 5B3 100 µg/mL + TSH 3 ng/mL [6]: 75.9 pmol/mL | % inhibition of TSH stimulation, 5B3 10 µg/mL, mutated TSHR [7]: 0% | % inhibition of TSH stimulation, 5B3 100 µg/mL, mutated TSHR [7]: 4% | Cyclic AMP produced (pmol/mL), 5B3 10 µg/mL + TSH 3 ng/mL, mutated TSHR [7]: 73.7 pmol/mL | Cyclic AMP produced (pmol/mL), 5B3 100 µg/mL + TSH 3 ng/mL, mutated TSHR [7]: 58 pmol/mL | Mutated/wild type (%), 5B3 10 µg/mL + TSH 3 ng/mL [7]: 69% | Mutated/wild type (%), 5B3 100 µg/mL + TSH 3 ng/mL [7]: 56% | Experiment 1: % inhibition of TSH stimulation; 5B3 10 µg/mL [8]: 0% | Experiment 1: % inhibition of TSH stimulation; 5B3 100 µg/mL [8]: 0% | Experiment 1: Mutated/wild type (%) of cyclic AMP produced; 5B3 10 µg/mL + TSH 3 ng/mL [8]: 80% | Experiment 1: Mutated/wild type (%) of cyclic AMP produced; 5B3 100 µg/mL + TSH 3 ng/mL [8]: 63% | Experiment 2: % inhibition of TSH stimulation; 5B3 10 µg/mL [8]: 14% | Experiment 2: % inhibition of TSH stimulation; 5B3 100 µg/mL [8]: 0% | Experiment 2: Mutated/wild type (%) of cyclic AMP produced; 5B3 10 µg/mL + TSH 3 ng/mL [8]: 77% | Experiment 2: Mutated/wild type (%) of cyclic AMP produced; 5B3 100 µg/mL + TSH 3 ng/mL [8]: 95% | % inhibition of TSH stimulation, 5B3 10 µg/mL, mutated TSHR [9]: 10% | % inhibition of TSH stimulation, 5B3 100 µg/mL, mutated TSHR [9]: 0% | Cyclic AMP produced (pmol/mL), 5B3 10 µg/mL + TSH 3 ng/mL, mutated TSHR [9]: 47 pmol/mL | Cyclic AMP produced (pmol/mL), 5B3 100 µg/mL + TSH 3 ng/mL, mutated TSHR [9]: 56.1 pmol/mL | Mutated/wild type (%) of cyclic AMP produced; 5B3 10 µg/mL + TSH 3 ng/mL [9]: 37% | Mutated/wild type (%) of cyclic AMP produced; 5B3 100 µg/mL + TSH 3 ng/mL [9]: 58% | % inhibition of TSH stimulation, Exp 1: 5B3 10 µg/mL [10]: 0% | % inhibition of TSH stimulation, Exp 1: 5B3 100 µg/mL [10]: 0% | % inhibition of TSH stimulation, Exp 2: 5B3 10 µg/mL [10]: 0% | % inhibition of TSH stimulation, Exp 2: 5B3 100 µg/mL [10]: 0% | % inhibition of TSH stimulation: 5B3 10 µg/mL [10]: 0% | % inhibition of TSH stimulation: 5B3 100 µg/mL [10]: 0% | % inhibition of TSH stimulation; 5B3 10 µg/mL [10]: 0% | % inhibition of TSH stimulation; 5B3 100 µg/mL [10]: 0% | Cyclic AMP produced; 5B3 10 µg/mL + TSH 3 ng/mL [10]: 75.6 pmol/mL | Cyclic AMP produced; 5B3 100 µg/mL + TSH 3 ng/mL [10]: 68.3 pmol/mL | % inhibition of TSH stimulation, 5B3 10 µg/mL, wild type TSHR [11]: 0% | % inhibition of TSH stimulation, 5B3 100 µg/mL, wild type TSHR [11]: 0% | Cyclic AMP produced (pmol/mL), 5B3 10 µg/mL + TSH 3 ng/mL, wild type TSHR [11]: 106 pmol/mL | Cyclic AMP produced (pmol/mL), 5B3 100 µg/mL + TSH 3 ng/mL, wild type TSHR [11]: 104 pmol/mL | Inhibition of binding (%) [12]: -1.7% | Mean absorbance at 405 nm (absorbance at 405 nm) [13]: -0.011
Substance: 5B3 IgG (antibody)

Mean absorbance at 405 nm (absorbance at 405 nm) [1]: 0.242 | Mean absorbance at 405 nm (absorbance at 405 nm) [2]: 0.006 | Inhibition of binding (%) [12]: 50.9% | Inhibition of binding (%) [14]: 75.6% | Inhibition of binding (%) [15]: 43.8%
Substance: 9D33 IgG (antibody)
